These results are taken from US20190185898A1 (UNIVERSITY OF MARYLAND BALTIMORE COUNTY, published 2019).

This assay has as its target T1, core-fucosylated complex type glycoform of rituximab (30).
T1 construct: Obtained from 28 by AlfC E274A catalysed core fucosylation; also called fucosylated rituximab (30); core fucosylated antibody (30)
Nature of the assay: ELISA, glycoprotein coated, AAL-biotin in serial dilution. As for the experimental part: The glycoprotein (20, 21, 28 or 30) (10 μg/ml) in a phosphate buffer (pH 7.5) was coated onto a 96-well plate (UltraCruz®) at 4° C. for overnight. After wash twice, 2% bovine serum albumin in PBS containing Tween® 20 (PBST buffer) was added to block the plate for 2 h. Subsequently, after washed twice again, a serial dilution of AAL-biotin ranging from 0.1 μM to 1000 μM in PBST buffer was added and the plate was incubated for 1 h. After washing, peroxidase streptavidin (2 μg/mL) (Jackson ImmunoResearch Inc.) was added and incubated for 1 h. Finally, 100 μL of substrate, 3, 3′, 5, 5′-tetramethylbenzidine was added for signal development. The reaction was stopped by the adding 100 μL of 20% sulfuric acid (v/v). The absorbance at 450 nm was measured using SpectraMax M5 microplate reader (Molecular Devices). For the binding of the N-glycans, the Fmoc-labeled N-glycans released from 20, 21, 28 and 30 (1 μg/ml) were coated on the plate and the ELISA analysis was performed in the same manner as that of the glycoproteins.

B1: Aleuria aurantia lectin (AAL) (other, UniProt P18891 2-313, looked up)
chain: PTEFLYTSKIAAISWAATGGRQQRVYFQDLNGKIREAQRGGDNPWTGGSSQNVIGEAKLFSPLAAVTWKSAQGIQIRVYCVNKDNILSEFVYDGSKWITGQLGSVGVKVGSNSKLAALQWGGSESAPPNIRVYYQKSNGSGSSIHEYVWSGKWTAGASFGSTVPGTGIGATAIGPGRLRIYYQATDNKIREHCWDSNSWYVGGFSASASAGVSIAAISWGSTPNIRVYWQKGREELYEAAYGGSWNTPGQIKDASRPTPSLPDTFIAANSSGNIDISVFFQASGVSLQQWQWISGKGWSIGAVVPTGTPAGW
modifications: biotin label (AAL-biotin), site not stated
notes: Lectin that recognises the α1,6-fucosylated glycan; Added in serial dilution (0.1 µM to 1000 µM) to the coated glycoprotein; also called AAL-biotin
A word on the EC50: it is the concentration giving half of the maximal effect. Turning to B1, the EC50 is 15 µM and the “fold higher affinity than core-fucosylated RNase B (21)” value was around 17 fold.
